Test results as given in patent publication CN113072642A (FUZHOU MAIXIN BIOTECHNOLOGY DEV CO LTD, dated 2021).

Biological target: T1, OCT3/4蛋白 (in tissue sections, immunohistochemistry) (human, UniProt Q01860 1-360, limits assumed)
T1 construct: Endogenous antigen in tumour and normal tissue chips; also called OCT3/4抗原
Assay: immunohistochemistry on tumour tissue chip

T1 sequence (Q01860 whole entry): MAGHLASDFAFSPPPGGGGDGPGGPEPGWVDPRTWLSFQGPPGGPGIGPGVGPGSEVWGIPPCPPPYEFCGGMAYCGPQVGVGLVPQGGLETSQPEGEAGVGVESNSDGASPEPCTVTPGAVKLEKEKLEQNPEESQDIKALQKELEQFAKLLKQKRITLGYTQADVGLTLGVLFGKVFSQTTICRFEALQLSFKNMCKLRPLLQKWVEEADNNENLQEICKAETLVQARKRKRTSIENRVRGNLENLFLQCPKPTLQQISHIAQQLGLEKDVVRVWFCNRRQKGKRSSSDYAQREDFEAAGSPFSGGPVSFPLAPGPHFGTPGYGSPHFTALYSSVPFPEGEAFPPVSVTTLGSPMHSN

- binding result: binds
B1: 41B1细胞株所分泌的抗OCT3/4蛋白单克隆抗体 (antibody, mouse IgG2b, V domains shown)
VH: VKLQESGGGLVKPGGSLKLSCTASGFTFSTYAMSWVRQTPEKRLEWVAAINSNGGNTYYPDTVKDRFTISRDNAKNTLYLQMSSLRSDDTALYYCARDGYDYWGQGTTLTVSS
VL: DIVMTQDELSLPVSLGDQASISCRSSQSLVHSNGVTYLFWHLQRPGQSPKLLIYRVSNRFSGVPDRFSGSGSGTDFTLKISRVEAEDLGVYFCFQGTHVPFTFGTGTKLEIK
notes: also called OCT3/4(41B1); 41B1分泌的OCT3/4
